Measured values reported in US10428308B2, “Mesoderm and definitive endoderm cell populations” (Icahn School of Medicine at Mount Sinai, priority 2005, dated 2019).

Key:
Type in all cases: cell-based, mouse
GFP-Bry ES cells / EBs = assay: Activin induction of brachyury (GFP) in serum-free EB cultures, FACS
Protocol: A) FACS profile showing GFP expression in day 6 EBs differentiated in the presence of 100 ng/ml of activin. B) Kinetics of GFP induction in cultures containing 100 ng/ml of activin. Open circles are EB differentiated in the presence of activin, closed squares are EBs differentiated in absence of activin. C) RT-PCR expression analysis of indicated genes in day 6 EBs grown in the presence (+activin) or absence (−activin) of activin. Numbers indicate day of EB differentiation.
FIGS. 23A and 23B show the effects of different concentrations of activin on the developmental potential of EBs. A) GFP expression in day 7 EBs induced with different concentrations of activin. B) RT-PCR expression analysis of day 7 EBs induced with different concentrations of activin.
To further enrich for cells with endodermal potential, the effects of growth factors known to induce this cell population in other model systems were tested. Studies in Xenopus have shown that activin will induce both mesoderm and endoderm from ectoderm in culture. Of particular interest was the observation that activin behaved as a morphogen in this model in that it induced different cell types at different concentrations used. […] ES cells were differentiated for 2 days in Stem Pro 34 medium without serum. At this stage, the developing EBs were harvested and recultured in IMDM supplemented with serum replacement (serum free) and activin at a concentration of 100 ng/ml. EBs were harvested at different days and assayed for GFP^+ expression and expression of genes indicative of ectoderm, mesoderm and endoderm development. […] While the kinetics of GFP induction was delayed compared to EBs differentiated in serum, this concentration of activin did induce substantial numbers of brachyury positive cells (60%) by day 6 of differentiation. […] Induction of pdx-1 is of interest, as this gene is essential for pancreas development. Genes associated with hematopoietic development, such as GATA-1 and those indicative of neuroectoderm differentiation such as PAX6 were not induced by activin.
As little as 1 ng/ml of activin induced GFP^+ expression (10% of the total population) by 7 days of culture (FIG. 23A). The frequency of GFP^+ cells increased to 40% in cultures stimulated with 3 ng/ml and reached plateau levels of greater than 50% at 30 ng/ml. […] HNF3β, Sox17, Hex-1 were all induced in cultures stimulated with 10, 30, or 100 ng/ml of activin. Pdx-1 expression required the highest amount of activin and was induced best in EBs stimulated with 100 ng/ml. Neither GATA1 nor c-fms was expressed at any concentration of activin.

[1] = test system: EBs (HNF3β, Hex1 expression); assay: Antibody staining for HNF3β and Hex1 in activin-induced EBs
Protocol: To better estimate the proportion of endodermal progenitors in the activin-induced EBs, cells from cultures stimulated with 100 ng/ml activin were stained with antibodies against HNF3β and Hex1. EBs from un-induced cultures were used as controls (Activin-). A significant portion of the activin induced population (estimated at 50-60% of total) expressed both HNF3β and Hex1. None of the cells in the un-induced EBs expressed these proteins.
To quantify the differential response of activin, cells stimulated with different concentrations of activin were adhered to coverslips and stained with the anti-HNF3β antibody. More than 50% of the entire EB population stimulated with 100 ng/ml of activin expressed HNF3β whereas only 10% of the cells stimulated with 3 ng/ml were positive.

[2] = test system: GFP^+ hCD4^med cells from CD4-HNF/GFP-T ES cells; assay: Reaggregation of sorted GFP^+ hCD4^med cells in serum free media with DKK1 and/or activin
Protocol: FIGS. 35A and 35B depict, the effects of DKK1 and activin on EB differentiation. EBs differentiated and sorted as in FIG. 32 for GFP^+ hCD4^med were allowed to reaggregate in serum replacement containing media alone or with the addition of human DKK1 100 ng/ml, activin 100 ng/ml, or both factors together. […] FIG. 35B depicts endodermal gene expression by RT PCR. The sorted populations were treated as indicated above for 2 days, then plated on matrigel in serum free media without factors added. Gene expression was analyzed an additional 5 days after plating.
Nodal, a key molecule involved in mesoderm/endoderm induction in vivo, signals through the same receptors as activin. It is also known that Nodal as well as inhibitors for Wnt signaling are expressed preferentially in or around the anterior primitive streak. Considering that the endoderm forms from the anterior primitive streak, it is possible that nodal/activin signaling in combination with inhibition of Wnt signals induces endoderm formation. To test this hypothesis, CD4-HNF/GFP-T ES cells were differentiated for 3.25 days in serum and GFP^+ hCD4^med cells were sorted and reaggregated in serum free media with no factor, DKK1 (Wnt inhibitor), activin, or activin and DKK1. The effect of these culture conditions on hCD4-HNF3β and GFP-Bry levels were analyzed by flow cytometry (FIG. 35A). With serum free media alone, hCD4 expression was lost after 1 day reaggregation. […] To further test this idea, sorted cells reaggregated for two days in the culture conditions above were washed with serum free media without factors and plated onto martrigel in serum free media. After 5 days, the cultures were harvested and gene expression determined by RT PCR. […] These culture conditions have the potential to allow the large scale production of endodermal derived tissues such as the pancreas and liver.

B1: activin: growth factor purchased from R&D systems; induces mesoderm and endoderm (protein, UniProt P08476 311-426, looked up)
Inhibin beta A chain: GLECDGKVNICCKKQFFVSFKDIGWNDWIIAPSGYHANYCEGECPSHIAGTSGSSLSFHSTVINHYRMRGHSPFANLKSCCVPTKLRPMSMLYYDDGQNIIKKDIQNMIVEECGCS
GFP-Bry ES cells / EBs; activin 1 ng/ml, 7 days of culture
  GFP^+ expression (% of the total population): 10%
GFP-Bry ES cells / EBs; activin 3 ng/ml, day 7
  frequency of GFP^+ cells: 40%
GFP-Bry ES cells / EBs; activin 30 ng/ml, day 7
  frequency of GFP^+ cells, plateau level: greater than 50%
GFP-Bry ES cells / EBs; activin 100 ng/ml, serum free, day 6 of differentiation
  brachyury positive cells (GFP): 60%
[1]; activin 3 ng/ml, anti-HNF3β antibody
  cells positive for HNF3β: 10%
[1]; activin 100 ng/ml, anti-HNF3β antibody
  entire EB population expressing HNF3β: More than 50%
[1]; activin 100 ng/ml, antibody staining, estimated
  portion of population expressing both HNF3β and Hex1: 50-60 % of total
[2]; 2 days treatment, then 5 days on matrigel without factors
  endoderm gene expression by RT PCR (pancreas, liver, intestine genes): Very low levels of just two of the genes, Pdxl and ALB
[2]; after 1 day reaggregation, DKK1 100 ng/ml, activin 100 ng/ml
  hCD4 (HNF3β) level by flow cytometry: retention of HNF3β levels similar to newly sorted cells
